In patent US5837843, “Modified protein C” (Oklahoma Medical Research Foundation, dated 1998):

How the values were obtained:
[1] = biological target: human activated protein C (APC), wild type (human, UniProt P04070, gamma carboxylglutamic acid (Gla) residues in the amino-terminal Gla domain (x in Sequence ID No. 2); Gla content 8.7±0.3 per mole for protein C); test: cell-based or functional assay

APC-PT Gla (activated chimeric protein C with the Gla domain and hydrophobic stack of prothrombin) (from UniProt P04070) (enzyme)
factor Va inactivation (three stage assay, residual factor Va activity in prothrombinase) (times more active than wild type APC) (factor Va): 5

B1: human protein S (other)
chain: ANSLLEETKQGNLERECIEELCNKEEAREVFENDPETDYFYPKYLVCLRSFQTGLFTAARQSTNAYPDLRSCVNAIPDQCSPLPCNEDGYMSCKDGKASFTCTCKPGWQGEKCEFDINECKDPSNINGGCSQICDNTPGSYHCSCKNGFVMLSNKKDCKDVDECSLKPSICGTAVCKNIPGDFECECPEGYRYNLKSKSCEDIDECSENMCAQLCVNYPGGYTCYCDGKKGFKLAQDQKSCEVVSVCLPLNLDTKYELLYLAEQFAGVVLYLKFRLPEISRFSAEFDFRTYDSEGVILYAESIDHSAWLLIALRGGKIEVQLKNEHTSKITTGGDVINNGLWNMVSVEELEHSISIKIAKEAVMDINKPGPLFKPENGLLETKVYFAGFPRKVESELIKPINPRLDGCIRSWNLMKQGASGIKEIIQEKQNKHCLVTVEKGSYYPGSGIAQFHIDYNNVSSAEGWHVNVTLNIRPSTGTGVMLALVSGNNTVPFAVSLVDSTSEKSQDILLSVENTVIYRIQALSLCSDQQSHLEFRVNRNNLELSTPLKIETISHEDLQRQLAVLDKAMKAKVATYLGGLPDVPFSATPVNAFYNGCMEVNINGVQLDLDEAISKHNDIRAHSCPSVWKKTKNS
factor Va inactivation by APC with and without protein S [1]: 2 fold
